# According to PMC12126530:
# pKd: −log10 of the molar value.
# Key:
# [1] = molecular target: Full-length Hsc70-T204A (ATPase deficient mutant) (human) (UniProt P11142); assay: NMR 15N-CPMG relaxation dispersion with exchange-induced shifts; 15N-labelled JDP (DNAJB6 JD-GF 200 μM, DNAJB6 JD 350 μM, DNAJB1 300 μM) with unlabelled Hsc70-T204A at a molar ratio of 0.1, ATP-regenerating system, 20 mM HEPES pH 7.0, 50 mM KCl, 2.5 mM MgCl2, 25 °C, 600, 800 and 950 MHz; fit to a 2-state model; kex = kon app + koff
# [2] = molecular target: Full-length Hsc70-T204A (ATPase deficient mutant) (human) (UniProt P11142); assay: NMR 15N-CPMG relaxation dispersion and exchange-induced shifts; 15N-labelled JDP observed, unlabelled Hsc70-T204A added to a molar ratio of 0.1 (DNAJB6 JD-GF 200 uM, DNAJB6 JD 350 uM, DNAJB1 300 uM); 25 °C; 20 mM HEPES pH 7.0, 50 mM KCl, 2.5 mM MgCl2; ATP-regenerating system with 2.5 mM ATP; fit to a two-state binding model
# Full-length Hsc70-T204A (ATPase deficient mutant) (human), sequence (P11142 whole entry T204A): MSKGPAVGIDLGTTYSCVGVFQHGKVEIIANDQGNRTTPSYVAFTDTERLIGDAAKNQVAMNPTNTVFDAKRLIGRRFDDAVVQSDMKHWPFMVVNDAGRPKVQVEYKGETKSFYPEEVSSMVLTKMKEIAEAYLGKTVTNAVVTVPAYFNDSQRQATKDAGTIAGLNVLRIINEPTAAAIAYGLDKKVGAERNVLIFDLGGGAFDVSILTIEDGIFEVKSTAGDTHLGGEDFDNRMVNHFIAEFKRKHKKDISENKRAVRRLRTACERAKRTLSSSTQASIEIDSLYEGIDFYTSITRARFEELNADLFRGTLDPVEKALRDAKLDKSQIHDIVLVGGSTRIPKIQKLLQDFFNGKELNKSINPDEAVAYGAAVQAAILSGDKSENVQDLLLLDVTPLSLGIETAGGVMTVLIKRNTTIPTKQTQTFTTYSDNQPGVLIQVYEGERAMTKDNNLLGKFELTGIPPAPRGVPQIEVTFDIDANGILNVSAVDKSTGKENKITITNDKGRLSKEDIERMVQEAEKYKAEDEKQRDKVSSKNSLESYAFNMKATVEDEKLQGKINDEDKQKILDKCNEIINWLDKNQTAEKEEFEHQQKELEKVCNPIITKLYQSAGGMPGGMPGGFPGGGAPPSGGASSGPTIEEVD
pKd [1],kex [1] [s⁻¹],koff [1] [s⁻¹],kon [2] [M⁻¹ s⁻¹],Substance
5.52,3000,2700,,DNAJB6 JD (from UniProt O75190 1-326) (domain or fragment)
3.42,600,580,1.54e+06,DNAJB6 JD-GF (from UniProt O75190 1-326) (domain or fragment)
